Laboratory results: US20250223614A1

Columns and labels:
[1] = molecular target: Cfa C-intein fused to the N-terminus of the C-terminal fragment of adenosine base editor ABE8.5 (starting at Cas9 position 310); test: cell-based or functional assay
[2] = molecular target: Gp41.1 C-intein fused to the N-terminus of the C-terminal fragment of adenosine base editor ABE8.5 (starting at Cas9 position 310); test: cell-based or functional assay

A7G Edit % (Exp. 1); average (N = 4) percent A > G conversion [1] [%]	A7G Edit % (Exp. 2); average (N = 4) percent A > G conversion [1] [%]	A7G Edit; average percent A > G conversion measured in Exps. 1-3 [1] [%]	A7G Edit; percent A > G conversion (Exp. 3) [1] [%]	A7G Edit % (Exp. 1); average (N = 4) percent A > G conversion [2] [%]	A7G Edit % (Exp. 2); average (N = 4) percent A > G conversion [2] [%]	A7G Edit; average percent A > G conversion (2 experiments only) [2] [%]	Substance
48.2	74.7	64.3	70				N-terminal fragment of adenosine base editor ABE8.5 (ending at Cas9 position 309) fused at its C-terminus to Cfa N-intein
				54.9	72.5	63.7	N-terminal fragment of adenosine base editor ABE8.5 (ending at Cas9 position 309) fused at its C-terminus to the Gp41.1-SC N-intein
